The supplement of paper PMC10567573

B1: ANKRD44 (parent)
chain: FHCIETLVTTGANVNETDDWGRTA

Variants of: B1
Assay: protein stability index of a GFP-peptide fusion (GPS, HEK-293T) (PSI 1-6); higher = more stable
Conditions: c terminus: a fixed tail appended
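Further: lentivirally expressed fusions sorted by FACS into six bins by GFP to DsRed ratio, PSI derived from sequencing read proportions per bin multiplied by bin number.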

| Variant | protein stability index |
| --- | --- |
| T10M | 1.71 |
| T10C | 1.96 |
| T10D | 3.46 |
| T10H | 2.08 |
| T10W | 2.68 |
| T10A | 1.72 |
| T10R | 2.34 |
| T10Q | 2.63 |
| T10V | 2.17 |
| T10L | 1.65 |
| T10P | 2.36 |
| T10S | 2.08 |
| T17L | 1.76 |
| T17M | 1.76 |
| T17Q | 2.27 |
| T17C | 2.14 |
| T17K | 2.02 |
| T17S | 2.61 |
| T17F | 2 |
| T17N | 1.86 |
| T17G | 1.86 |
| T17P | 2.6 |
| T17H | 1.83 |
| T17W | 2.04 |

| Variant | protein stability index |
| --- | --- |
| T17A | 1.92 |
| T17V | 2 |
| T17D | 2.29 |
| D19L | 2.09 |
| D19F | 2.58 |
| D19N | 1.75 |
| D19Y | 2.43 |
| D19E | 2.49 |
| D19K | 2.05 |
| D19P | 2.26 |
| D19G | 1.79 |
| D19Q | 2.06 |
| D19C | 2.15 |
| D19M | 2 |
| D19I | 3.48 |
| D19V | 2.18 |
| C3Y | 2.19 |
| C3S | 2.69 |
| C3D | 3.62 |
| C3H | 2.79 |
| C3Q | 3.03 |
| C3T | 2.65 |
| C3R | 2.47 |
| C3G | 2.89 |

| Variant | protein stability index |
| --- | --- |
| C3W | 2.47 |
| C3K | 3.8 |
| C3P | 3.36 |
| C3F | 2 |
| C3I | 1.78 |
| C3L | 2.05 |
| I4L | 2.65 |
| I4C | 2.33 |
| I4T | 2.87 |
| I4A | 2.1 |
| I4R | 2.61 |
| I4N | 2.87 |
| I4M | 2.16 |
| I4K | 2.11 |
| I4D | 3.41 |
| I4V | 2.44 |
| I4F | 2.36 |
| I4E | 3.59 |
| I4Y | 1.9 |
| I4S | 2.69 |
| H2A | 2.89 |
| H2M | 2.64 |
| H2N | 3.37 |
| H2P | 3.77 |

| Variant | protein stability index |
| --- | --- |
| H2R | 3.46 |
| H2Q | 3.27 |
| H2C | 2.05 |
| H2Y | 1.89 |
| H2D | 4.54 |
| H2L | 2.31 |
| H2W | 1.68 |
| H2E | 3.9 |
| H2I | 1.62 |
| H2F | 1.8 |
| H2G | 3.71 |
| H2V | 1.74 |
| H2S | 3.36 |
| V8M | 2.2 |
| V8C | 2.03 |
| V8P | 3.48 |
| V8Q | 3 |
| V8G | 1.89 |
| V8K | 2.42 |
| V8D | 3.76 |
| V8L | 1.4 |
| V8H | 2.45 |
| V8T | 2.29 |
| V8F | 2.26 |

| Variant | protein stability index |
| --- | --- |
| V8N | 2.86 |
| V8A | 2.05 |
| V8R | 2.15 |
| N13A | 2.56 |
| N13W | 1.77 |
| N13P | 2.41 |
| N13S | 2.39 |
| N13T | 2.18 |
| N13V | 2.61 |
| N13H | 2.13 |
| N13Y | 1.68 |
| N13L | 2.11 |
| N13M | 1.5 |
| N13E | 1.69 |
| N13K | 2.36 |
| N13Q | 2.3 |
| N13G | 2.21 |
| N13C | 1.59 |
| V14H | 1.94 |
| V14K | 2.31 |
| V14T | 2.93 |
| V14M | 2.07 |
| V14I | 1.82 |
| V14C | 2.19 |

| Variant | protein stability index |
| --- | --- |
| V14N | 3 |
| V14F | 2.14 |
| V14P | 2.71 |
| V14G | 1.86 |
| V14L | 2.08 |
| V14R | 2.61 |
| V14Q | 2.11 |
| V14Y | 1.77 |
| G11E | 2.94 |
| G11M | 1.5 |
| G11H | 1.53 |
| G11P | 2.23 |
| G11K | 2.29 |
| G11D | 2.88 |
| G11W | 2.99 |
| G11C | 2.09 |
| G11I | 2.62 |
| G11T | 2.29 |
| G11S | 1.68 |
| G11A | 1.79 |
| G21D | 2.71 |
| G21P | 1.98 |
| G21K | 2.42 |
| G21A | 2.12 |

| Variant | protein stability index |
| --- | --- |
| G21C | 1.76 |
| G21S | 1.89 |
| G21H | 2.32 |
| G21L | 2.12 |
| G21V | 2.27 |
| G21W | 2.48 |
| G21N | 1.68 |
| G21I | 2.24 |
| G21T | 2.25 |
| G21R | 2.5 |
| G21Q | 2.21 |
| W20Y | 2.51 |
| W20P | 2.61 |
| W20F | 2.66 |
| W20G | 2.52 |
| W20N | 3.23 |
| W20V | 2.77 |
| W20S | 3 |
| W20E | 3.19 |
| W20Q | 2.66 |
| W20D | 3.2 |
| W20C | 2.43 |
| W20R | 2.57 |
| W20M | 2.47 |

| Variant | protein stability index |
| --- | --- |
| W20A | 2.99 |
| W20L | 3.26 |
| W20K | 3.03 |
| T23L | 1.91 |
| T23M | 1.38 |
| T23H | 2.42 |
| T23N | 2.17 |
| T23E | 2.71 |
| T23Q | 2.24 |
| T23S | 2.31 |
| T23W | 1.56 |
| T23I | 1.86 |
| T23G | 2.42 |
| T23R | 2.05 |
| T23F | 2.06 |
| T23C | 1.87 |
| T23V | 2.14 |
| T23P | 2.13 |
| E16L | 1.8 |
| E16Q | 1.45 |
| E16V | 1.64 |
| E16K | 2.5 |
| E16C | 2.16 |
| E16D | 2.17 |

| Variant | protein stability index |
| --- | --- |
| E16Y | 2.32 |
| E16F | 1.86 |
| E16A | 1.98 |
| E16N | 1.97 |
| E16T | 1.53 |
| E16M | 1.56 |
| E16R | 1.76 |
| E16W | 2.43 |
| T9Q | 2.63 |
| T9I | 2.67 |
| T9D | 3.26 |
| T9H | 2.18 |
| T9G | 2.7 |
| T9K | 2.83 |
| T9P | 2.06 |
| T9C | 1.78 |
| T9E | 3.12 |
| T9L | 1.77 |
| T9M | 1.45 |
| T9V | 1.6 |
| T9N | 2.56 |
| T9A | 2.01 |
| A24H | 2.39 |
| A24L | 1.91 |

| Variant | protein stability index |
| --- | --- |
| A24T | 2.21 |
| A24W | 1.16 |
| A24S | 2.06 |
| A24M | 2.39 |
| A24G | 2.05 |
| A24Q | 2.06 |
| A24R | 2.37 |
| A24K | 2.46 |
| A24F | 2.24 |
| A24C | 1.98 |
| A24I | 1.88 |
| A24D | 2.74 |
| A24P | 2.63 |
| L7T | 2.85 |
| L7V | 2.19 |
| L7I | 2.23 |
| L7F | 2.86 |
| L7A | 2.2 |
| L7H | 2.56 |
| L7C | 2.01 |
| L7M | 2.19 |
| L7K | 2.89 |
| L7D | 4.03 |
| L7G | 2.42 |

| Variant | protein stability index |
| --- | --- |
| L7Y | 3.58 |
| L7S | 2.57 |
| F1M | 4.54 |
| F1Q | 4.54 |
| F1H | 4.18 |
| F1E | 4.77 |
| F1L | 3.31 |
| F1P | 4.56 |
| F1W | 3.18 |
| F1Y | 2.07 |
| F1G | 4.25 |
| F1K | 4.18 |
| F1R | 3.48 |
| F1T | 4.25 |
| F1V | 3.68 |
| F1S | 4.04 |
| N15V | 2 |
| N15M | 1.69 |
| N15D | 2.29 |
| N15A | 1.76 |
| N15Q | 2.18 |
| N15F | 1.96 |
| N15S | 1.64 |
| N15L | 2.21 |

| Variant | protein stability index |
| --- | --- |
| N15H | 2.17 |
| N15Y | 1.96 |
| T6Q | 2.16 |
| T6F | 2.03 |
| T6G | 1.73 |
| T6C | 1.75 |
| T6L | 3.01 |
| T6W | 3.88 |
| T6N | 2.52 |
| T6D | 3.61 |
| T6V | 3.28 |
| T6S | 2.71 |
| T6A | 2.16 |
| T6K | 1.93 |
| T6R | 1.96 |
| R22K | 2.36 |
| R22G | 1.88 |
| R22T | 2.46 |
| R22S | 2.71 |
| R22W | 1.49 |
| R22D | 3.09 |
| R22E | 2.91 |
| R22F | 1.65 |
| R22A | 2.64 |

| Variant | protein stability index |
| --- | --- |
| R22Q | 2.7 |
| R22P | 3.06 |
| R22V | 2.29 |
| R22L | 2.5 |
| D18I | 1.95 |
| D18N | 2.26 |
| D18F | 2.21 |
| D18S | 2.18 |
| D18R | 2.17 |
| D18W | 2.07 |
| D18Q | 1.69 |
| D18H | 1.54 |
| D18L | 2.81 |
| D18Y | 2.46 |
| D18G | 1.79 |
| D18E | 2.09 |
| D18V | 2.43 |
| E5Q | 1.48 |
| E5A | 2.31 |
| E5P | 2.43 |
| E5S | 1.92 |
| E5G | 2.11 |
| E5W | 2.26 |
| E5L | 4.06 |

| Variant | protein stability index |
| --- | --- |
| E5T | 1.82 |
| E5R | 1.55 |
| E5C | 2.02 |
| E5H | 2.76 |
| E5N | 2.03 |
| A12M | 2.14 |
| A12L | 2.45 |
| A12N | 2.07 |
| A12V | 1.59 |
| A12P | 1.81 |
| A12K | 2.07 |
| A12Q | 2.09 |
| A12E | 2.31 |
| A12H | 2.1 |
| A12F | 2.61 |
| A12T | 2.82 |
| A12Y | 1.88 |
| A12G | 1.52 |
| A12I | 1.7 |
| A12C | 1.1 |
| A12W | 3.07 |
| A12D | 1.87 |
